B1: 35-E11: P450 BM-3 variant, SEQ ID NO:7: 53-5H substitutions plus E464G and I710T (protein)
chain: TIKEMPQPKTFGELKNLPLLNTDKPVQALMKIADELGEIFKFEAPGCVTRYLSSQRLIKEACDESRFDKNLSQALKFFRDFSGDGLFTSWTHEINWKKAHNILLPSFSQQAMKGYHAMMVDIAVQLVQKWERLNADEHIEVSEDMTRLTLDTIGLCGFNYRFNSFYRDQPHPFIISMVRALDEVMNKLQRANPDDPAYDENKRQCQEDIKVMNDLVDKIIADRKARGEQSDDLLTQMLNGKDPETGEPLDDGNISYQIITFLIAGHETTSGLLSFALYFLVKNPHVLQKVVEEAARVLVDPVPSYKQVKQLKYVGMVLNEALRLWPTFPAFSLYAKEDTVLGGEYPLEKGDEVMVLIPQLHRDKTIWGDDVEEFRPERFENPSAIPQHAFKPFGNGQRACIGQQFALHEATLVLGMMLKHFDFEDHTNYELDIKETLTLKPEGFVVKAKSKKIPLGGIPSPSTGQSAKKVRKKAENAHNTPLLVLYGSNMGTAEGTARDLADIAMSKGFAPQVATLDSHAGNLPREGAVLIVTASYNGHPPDNAKQFVDWLDQASADEVKGVRYSVFGCGDKNWATTYQKVPAFIDETLAAKGAENIADRGEADASDDFEGTYEEWREHMWSDVAAYFNLDIENSEDNKSTLSLQFVDSAADMPLAKMHGAFSTNVVASKELQQPGSARSTRHLEIELPKEASYQEGDHLGVIPRNYEGTVNRVTARFGLDASQQIRLEAEEEKLAHLPLAKTVSVEELLQYVELQDPVTRTQLRAMAAKTVCPPHKVELEALLEKQAYKEQVLAKRLTMLELLEKYPACEMKFSEFIALLPSIRPRYYSISSSPRVDEKQASITVSVVSGEAWSGYGEYKGIASNYLAELQEGDTITCFISTPQSEFTLPKDPETPLIMVGPGTGVAPFRGFVQARKQLKEQGQSLGEAHLYFGCRSPHEDYLYQEELENAQSEGIITLHTAFSRMPNQPKTYVQHVMEQDGKKLIELLDQGAHFYICGDGSQMAPAVEATLMKSYADVHQVSEADARLWLQQLEEKGRYAKDVWAG
modifications: mutant P450 35-E11 protein sequence
B2: Wild-type BM-3: wild-type cytochrome P450 BM-3 from Bacillus megaterium, SEQ ID NO:1 (protein, listed as Bacillus megaterium)
chain: TIKEMPQPKTFGELKNLPLLNTDKPVQALMKIADELGEIFKFEAPGRVTRYLSSQRLIKEACDESRFDKNLSQALKFVRDFAGDGLFTSWTHEKNWKKAHNILLPSFSQQAMKGYHAMMVDIAVQLVQKWERLNADEHIEVPEDMTRLTLDTIGLCGFNYRFNSFYRDQPHPFITSMVRALDEAMNKLQRANPDDPAYDENKRQFQEDIKVMNDLVDKIIADRKASGEQSDDLLTHMLNGKDPETGEPLDDENIRYQIITFLIAGHETTSGLLSFALYFLVKNPHVLQKAAEEAARVLVDPVPSYKQVKQLKYVGMVLNEALRLWPTAPAFSLYAKEDTVLGGEYPLEKGDELMVLIPQLHRDKTIWGDDVEEFRPERFENPSAIPQHAFKPFGNGQRACIGQQFALHEATLVLGMMLKHFDFEDHTNYELDIKETLTLKPEGFVVKAKSKKIPLGGIPSPSTEQSAKKVRKKAENAHNTPLLVLYGSNMGTAEGTARDLADIAMSKGFAPQVATLDSHAGNLPREGAVLIVTASYNGHPPDNAKQFVDWLDQASADEVKGVRYSVFGCGDKNWATTYQKVPAFIDETLAAKGAENIADRGEADASDDFEGTYEEWREHMWSDVAAYFNLDIENSEDNKSTLSLQFVDSAADMPLAKMHGAFSTNVVASKELQQPGSARSTRHLEIELPKEASYQEGDHLGVIPRNYEGIVNRVTARFGLDASQQIRLEAEEEKLAHLPLAKTVSVEELLQYVELQDPVTRTQLRAMAAKTVCPPHKVELEALLEKQAYKEQVLAKRLTMLELLEKYPACEMKFSEFIALLPSIRPRYYSISSSPRVDEKQASITVSVVSGEAWSGYGEYKGIASNYLAELQEGDTITCFISTPQSEFTLPKDPETPLIMVGPGTGVAPFRGFVQARKQLKEQGQSLGEAHLYFGCRSPHEDYLYQEELENAQSEGIITLHTAFSRMPNQPKTYVQHVMEQDGKKLIELLDQGAHFYICGDGSQMAPAVEATLMKSYADVHQVSEADARLWLQQLEEKGRYAKDVWAG

Test: Octane hydroxylation (rate, ttn, regio- and enantioselectivity)
Type: biochemical
Details: for Octane ttn / Octane Rate: 1% ethanol; for Octane Rate: initial rate of octanol formation over 1 min; for Octane % 2-octanol: regioselectivity
Protocol: Cell lysates for high throughput screening were prepared as described previously (Peters et al., J. Am. Chem. Soc. 125:13442 (2003); incorporated by reference herein). High-throughput dimethyl ether (DME) screens were performed in 96 well plates as described previously. Improved mutants were selected based on an increased signal compared to 9-10A (for the saturation mutagenesis libraries) and 1-12G (for the recombination library). Reactions on octane and propane were analyzed by gas chromatography as described.
Rates of ethanol formation were measured over 30 min using gas chromatography (GC) coupled to an electron capture detector (ECD) and are reported as nmol ethanol/min/nmol enzyme. Errors are at most 10%. Total turnover number (ttn) was measured using GC after completion of the reaction and is reported as nmol product/nmol protein. Errors are at most 10%. Initial rates of propanol and octanol formation were measured over 1 min by GC and are reported as nmol product/min/nmol protein. Errors are at most 15%. The “ee” of 2-octanol (main product) was measured by GC; the favored enantiomer is listed in parenthesis. Wild-type P450 BM-3 primarily produces 3- and 4-octanol. The yields were not sufficient for the determination of ee for wt BM-3. Mutant 9-10A contains amino acid substitutions R47C, V78A K94I, P142S, T175I, A184V, F205C, S226R, H236Q, E252G, R255S, A290V, and L353V.
In Table 5 the product distribution is determined as ratio of a specific alcohol product to the total amount of all alcohol products (given in %). The product distribution for ketones was similar to alcohol product distribution. The numbers reported here are the (%) total of all ketones relative to total products (alcohols+ketones). The favored enantiomer is listed in parentheses.
For the data shown in Table 6 the initial NADPH consumption rates were measured over 15 seconds at 340 nm as nmol NADPH/min/nmol protein. Octane reactions contained 100 nM P450, 166 uM NADPH, and 4 mM octane in 1% ethanol and potassium phosphate buffer. […] Errors are at most 10%. Initial rates were measured by GC over 1 minute as nmol total products/min/nmol protein. Octane reactions contained 100 nM P450, 500 uM NADPH, and 4 mM octane in 1% ethanol and potassium phosphate buffer. Propane reactions contained 1 uM P450, 500 uM NADPH, and propane-saturated potassium phosphate buffer. Coupling was determined by ratio of product formation rate to NADPH consumption rate. Total turnover numbers were determined as nmol product/nmol enzyme. Octane reactions contained 10-25 nM P450, 500 uM NADPH, and 4 mM octane in 1% ethanol and potassium phosphate buffer. Propane reactions contained 10-25 nM protein, potassium phosphate buffer saturated with propane, and an NADPH regeneration system containing 100 uM NADP+, 2 U/mL isocitrate dehydrogenase, and 10 mM isocitrate.
Twenty-one single active site mutants with increased activity towards either of these substrates were isolated. Mutations that improved the activity were found at amino acid positions L75 (I, W), A78 (T, F, S), A82 (T, S, F, I, C, G, L), F87 (I, V, L), T88 (C), T260 (N, L, S) and A328 (L, F, M). The single active site mutants of 9-10A were characterized by their altered regioselectivity towards octane. Each of these mutations produces a characteristic octanol product distribution as a result of their presence altering the active site geometry above the heme cofactor. Transformations were carried out using cell lysates. The mutations were generated in variant 9-10A (with amino acid mutations R47C, V78A, K94I, P142S, T175I, A184V, F205C, S226R, H236Q, E252G, R255S, A290V, L353V). “Others” indicates over oxidation products (ketones and aldehydes) with a similar product distribution as the alcohols. “Rate” was measured as nmol octanol/nmol P450/minute. “TTN” was measured as nmol octanol/nmol P450 produced in 4 hour reaction.
Mutations are relative to variant 9-10A (described above). Wild-type has a valine at position 78. […]

Molecule	Octane ttn [nmol product/nmol protein]	Octane % ee (ee of 2-octanol (main product), favored enantiomer (S)) [%]	Octane Rate	Octane % 2-octanol [%]	rate of octane hydroxylation [min⁻¹]
B1	8000	65	420 nmol product/min/nmol protein	89	–
B2	150	–	30 nmol product/min/nmol protein	17	30

— patent US12258605B2, “Alkane oxidation by modified hydroxylases” (The California Institute of Technology, priority 2005, dated 2025)
